Measured values as given in patent US20220089784A1 (University of California, published 2022).

T1: BoNT/C1 holotoxin (Clostridium botulinum, UniProt P18640 2-1291)
T1 sequence: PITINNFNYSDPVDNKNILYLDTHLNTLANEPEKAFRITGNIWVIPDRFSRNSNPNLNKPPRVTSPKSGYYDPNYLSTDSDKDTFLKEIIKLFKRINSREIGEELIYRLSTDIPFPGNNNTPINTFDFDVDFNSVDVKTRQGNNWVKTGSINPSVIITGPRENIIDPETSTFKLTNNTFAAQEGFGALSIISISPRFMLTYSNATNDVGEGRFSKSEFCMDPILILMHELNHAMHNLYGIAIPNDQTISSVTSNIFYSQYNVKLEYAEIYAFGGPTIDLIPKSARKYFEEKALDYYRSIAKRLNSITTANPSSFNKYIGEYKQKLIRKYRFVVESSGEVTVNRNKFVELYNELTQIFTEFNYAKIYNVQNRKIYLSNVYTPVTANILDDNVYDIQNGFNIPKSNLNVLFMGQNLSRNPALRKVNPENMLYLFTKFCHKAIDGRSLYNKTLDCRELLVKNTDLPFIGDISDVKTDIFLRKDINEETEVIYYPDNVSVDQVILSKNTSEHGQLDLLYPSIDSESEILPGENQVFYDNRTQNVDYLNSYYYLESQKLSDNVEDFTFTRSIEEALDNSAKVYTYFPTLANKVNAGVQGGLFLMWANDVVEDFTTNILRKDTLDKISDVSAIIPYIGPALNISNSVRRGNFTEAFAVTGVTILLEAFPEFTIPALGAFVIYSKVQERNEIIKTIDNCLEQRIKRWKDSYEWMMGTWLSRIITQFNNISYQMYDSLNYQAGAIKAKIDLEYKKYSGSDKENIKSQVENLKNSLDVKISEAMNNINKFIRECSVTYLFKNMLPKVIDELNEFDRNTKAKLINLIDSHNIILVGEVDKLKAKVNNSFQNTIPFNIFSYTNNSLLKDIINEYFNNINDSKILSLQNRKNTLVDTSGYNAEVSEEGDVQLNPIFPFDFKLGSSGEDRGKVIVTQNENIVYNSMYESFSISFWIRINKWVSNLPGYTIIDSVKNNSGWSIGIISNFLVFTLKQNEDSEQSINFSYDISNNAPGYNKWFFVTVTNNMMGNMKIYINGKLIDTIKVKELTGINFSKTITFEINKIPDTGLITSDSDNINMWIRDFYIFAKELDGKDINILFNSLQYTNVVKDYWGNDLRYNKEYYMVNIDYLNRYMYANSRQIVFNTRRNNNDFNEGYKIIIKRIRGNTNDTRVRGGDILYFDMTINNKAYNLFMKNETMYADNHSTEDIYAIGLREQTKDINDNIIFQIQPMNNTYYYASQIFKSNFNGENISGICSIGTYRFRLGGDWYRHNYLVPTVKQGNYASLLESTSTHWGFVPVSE

T2: BoNT/D (Clostridium botulinum, UniProt P19321 2-1276)
T2 sequence: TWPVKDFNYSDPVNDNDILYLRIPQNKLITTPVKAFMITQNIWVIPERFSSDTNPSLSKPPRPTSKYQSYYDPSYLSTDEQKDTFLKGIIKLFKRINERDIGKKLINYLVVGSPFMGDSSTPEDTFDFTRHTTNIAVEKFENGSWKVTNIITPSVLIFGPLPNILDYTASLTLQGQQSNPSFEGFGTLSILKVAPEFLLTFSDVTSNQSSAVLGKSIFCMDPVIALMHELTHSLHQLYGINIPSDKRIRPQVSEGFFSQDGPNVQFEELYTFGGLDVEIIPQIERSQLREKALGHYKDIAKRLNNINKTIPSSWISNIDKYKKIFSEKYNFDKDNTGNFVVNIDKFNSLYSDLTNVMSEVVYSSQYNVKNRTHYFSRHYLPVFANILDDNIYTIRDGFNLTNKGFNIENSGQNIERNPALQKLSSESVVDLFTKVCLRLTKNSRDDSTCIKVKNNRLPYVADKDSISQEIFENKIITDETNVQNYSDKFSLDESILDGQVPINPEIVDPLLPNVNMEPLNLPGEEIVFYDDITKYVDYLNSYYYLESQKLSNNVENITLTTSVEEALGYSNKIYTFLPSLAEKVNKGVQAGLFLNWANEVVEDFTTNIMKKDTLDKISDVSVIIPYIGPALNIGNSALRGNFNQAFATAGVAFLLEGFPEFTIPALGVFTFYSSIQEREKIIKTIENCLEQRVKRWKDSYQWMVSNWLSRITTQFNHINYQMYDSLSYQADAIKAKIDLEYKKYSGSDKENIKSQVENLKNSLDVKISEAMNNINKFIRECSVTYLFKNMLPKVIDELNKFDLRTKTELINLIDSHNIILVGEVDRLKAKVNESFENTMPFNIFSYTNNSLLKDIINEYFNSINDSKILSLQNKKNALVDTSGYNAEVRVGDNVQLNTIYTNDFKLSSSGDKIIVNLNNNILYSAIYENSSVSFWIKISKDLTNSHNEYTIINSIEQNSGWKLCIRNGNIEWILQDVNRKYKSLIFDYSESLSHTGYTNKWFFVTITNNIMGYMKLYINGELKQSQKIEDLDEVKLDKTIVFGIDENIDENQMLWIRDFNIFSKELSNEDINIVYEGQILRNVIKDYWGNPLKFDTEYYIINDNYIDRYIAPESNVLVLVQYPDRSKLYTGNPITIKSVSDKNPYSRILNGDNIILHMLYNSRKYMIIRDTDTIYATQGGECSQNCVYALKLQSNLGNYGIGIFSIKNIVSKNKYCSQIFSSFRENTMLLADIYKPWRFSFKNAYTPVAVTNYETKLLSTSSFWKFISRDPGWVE


How the values were obtained:
BoNT/C1 holotoxin = biological target: T1, BoNT/C1 holotoxin; test: yeast scFv FACS
BoNT/D = biological target: T2, BoNT/D; test: yeast scFv FACS

| Binder | Kd (BoNT/C1 holotoxin) | binding result (BoNT/D) | binding result (BoNT/C1 holotoxin) |
| --- | --- | --- | --- |
| 4C3 scFv (scFv, V domains shown, human) VH: EVQLVQSGAEVKKPGSSVKVSCKASGNSLNNYAITWVRQAPGQGLEWMGGINPLFGTANYAQKFQDRVTMTADESTNIAYLDLSSLTTADTAVYFCAVGAFTNYPFWGQGTTVTVSS VL: SGLTQDPAVSEALGQTVRITCQGDSLRSYYASWYQQKPGQAPLLVIYAGNNRPSGIPDRFSGSSSGNTASLTITGARAEDEADYYCNSRDSSGNYLFGAGTKLTVL | 4.7 nM | no binding (tested: ~1 µM) | – |
| 4C9 scFv (scFv, V domains shown, human) VH: QVQLVESGAEVKKPGASVKVSCTASGYTFAGYYMDWVRQAPGQGLEWMGRINPKSGDPNYEQKFQGRVTLTRDKSINTVYMELSRLKSDDTAIYYCARSVSGGAFDLWGRGTLVTVSS VL: DIVMTQSPSSLSASVGDRVTITCRASQSINSYLNWYQQKPGKVPRLLIYSASSLQSGVPSRFSGSGSGTDFTLTISSLQPDDFATYYCQQYKRYSSFGQGTKVEIK | 29.6 nM | no binding (tested: ~1 µM) | – |
| 8DC3 scFv (scFv, V domains shown, human) VH: QVQLVQSGGGLVKPGGSLRLSCAASGFTFSSHSMNWVRQAPGKGLEWVSSISSSSSYIYYADSVKGRFTISRDNSKNSLYLQLNSLRAEDTAVYYCARGDHDFRSGYYGMDVWGQGTMVTVSS VL: AELTQDPAVSVALGQTVRITCQGDSLRNYYASWYQQKPGQAPVLVIYGKNIRPSGIPDRFSGSSSGNTASLTITGAQAEDEADYYCNSRDSNGNHYVFGTGTKVTVL | – | binds | no binding (tested: ~1 µM) |
| 4C1 scFv (scFv, V domains shown, human) VH: QVQLQESGPGLVKPSQTLSLTCAVSGGSINSGDYYWTWIRQHPGKGLEWIGNIYYTGRTYYNPSLQSRLTMSVDTSRTHFSLKLSAVTAADTAVYYCARGQDTSMVTRNFYYGLDVWGQGTTVTVSS VL: DIVMTQSPSFVSASVGDRVTITCRASQGISSYLAWYQQKPGKAPKLLIYAASTLQSGVPSRFSGSGSGTDFTLTISSLQPEDIATYYCQELSSYPLTFGGGTKLEIK | 2.7 nM | no binding (tested: ~1 µM) | – |
| 4C5 scFv (scFv, V domains shown, human) VH: QVQLVQSGADVKKPGASVRVSCKASGYTISTYAMSWVRQAPGQGLEWMGWISGYNGNTNYAQEFQGRVTMTRDTSTNTAYMELRSLRSDDTAFYYCARVKLTTMVRGGPFDYWGQGTLVTVSS VL: EIVLTQSPSSLSATVGDRVTITCRASQGIRNDLVWYQQKPGKAPKRLTYAASSLLSGVPSRFSGSGSGTDFTLTISSLQPEDFATYYCQQYNSYPPTFGGGTKLEIK | 0.143 nM | no binding (tested: ~1 µM) | – |
| 8DC2 scFv (scFv, V domains shown, human) VH: QVQLVQSGAEVKKPGSSVKVSCKTSGGTFRNFAISWVRQAPGQGLEWMGGIIPMFGKGHYAQNFQGRVTITADDSTTTAYMELSSLRYEDTAVYYCARGTRNGSLRDAFDIWGQGTTVTVSS VL: ASVLTQDPSASGSPGQSVTISCTGTSSDVGGYNYVSWYQQHPGKAPKLMIYDVSNRPSEVPDRFSGSKSGNTASLTVSGLQAEDEADYYCSSYAGSNKRVFGGGTKLTVL | – | no binding (tested: ~1 µM) | binds |
| 87C78 scFv (scFv, V domains shown, human) VH: QVQLQESGGGVVQPGKSLRLSCVTSTFTLGTYAMHWVRQAPGKGLQWVAVISYDGRYADYADSVKGRFNISRDNSKNTLYLQMHSLTTEDTALYYCAKAIKAFRPVPPSFHMDVWGIGTTVTVSS VL: DIVMTQSPSSLSASVGDRVTITCRASQGISSYLAWYQQKPGKAPQLLIYKASILKSGVPSRFSGSGSGTEFTLTISSLQPEDFATYFCQQTFDTPLTFGQGTKVEIK | 1 nM | no binding (tested: ~1 µM) | – |
| 4C8 scFv (scFv, V domains shown, human) VH: QVQLVESGGGLVQPGRSLRLSCAASGLTLSNYWMNWVRQAPGKGLEWVANIHQDGVEKYYVDSVKGRFTISRDNAKNSLYLQMSSLRAEDTAVYYCARGGKYSNSSAMYQWGQGTLVTVSS VL: DIVMTQSPSSLAASVGDRVTITCRASQSISGYLNWYQQKPGKAPNLLIYAASSLQSGVPSRFSGSGSGTDFTLTISSLQPDDFASYYCQQSYDIPRTFGQGTKVEIK | 51.1 nM | no binding (tested: ~1 µM) | – |
